The Human Domainome abundance scans (Beltran et al. 2025)
± gives the uncertainty stated by the source.

B1: Tumor protein 63, residues 545 to 610; numbered along this chain, Q9H3D4 (parent)
chain: TDCSIVSFLARLGCSSCLDYFTTQGLTTIYQIEHYSMDDLASLKIPEQFRHAIWKGILDHRQLHEF

Variants of: B1
Test: abundance fitness (aPCA) (normalised: wild type 0, dead -1); higher = more abundant; growth selection in yeast, the domain comes from the species named
Details: Homo sapiens

| Variant | abundance fitness |
| --- | --- |
| TDCSIVSFLARLGCSSCLDYLTTQGLTTIYQIEHYSMDDLASLKIPEQFRHAIWKGILDHRQLHEF | -0.56 ± 0.028 |
| TDCSIVSFLARLGCSSCLDYGTTQGLTTIYQIEHYSMDDLASLKIPEQFRHAIWKGILDHRQLHEF | -0.986 ± 0.061 |
| TDCSIVSFLARLGCSSCLDYWTTQGLTTIYQIEHYSMDDLASLKIPEQFRHAIWKGILDHRQLHEF | -1.04 ± 0.11 |
| TDCSIVSFLARLGCSSCLDYATTQGLTTIYQIEHYSMDDLASLKIPEQFRHAIWKGILDHRQLHEF | -1.02 ± 0.082 |
| TDCSIVSFLARLGCSSCLDYTTTQGLTTIYQIEHYSMDDLASLKIPEQFRHAIWKGILDHRQLHEF | -1.13 ± 0.13 |
| TDCSIVSFLARLGCSSCLDYRTTQGLTTIYQIEHYSMDDLASLKIPEQFRHAIWKGILDHRQLHEF | -0.964 ± 0.058 |
| TDCSIVSFLARLGCSSCLDYQTTQGLTTIYQIEHYSMDDLASLKIPEQFRHAIWKGILDHRQLHEF | -0.965 ± 0.095 |
| TDCSIVSFLARLGCSSCLDYNTTQGLTTIYQIEHYSMDDLASLKIPEQFRHAIWKGILDHRQLHEF | -0.962 ± 0.1 |
| TDCSIVSFLARLGCSSCLDYDTTQGLTTIYQIEHYSMDDLASLKIPEQFRHAIWKGILDHRQLHEF | -1.03 ± 0.12 |
| TDCSIVSFLARLGCSSCLDYCTTQGLTTIYQIEHYSMDDLASLKIPEQFRHAIWKGILDHRQLHEF | -1.01 ± 0.11 |
| TDCSIVSFLARLGCSSCPDYFTTQGLTTIYQIEHYSMDDLASLKIPEQFRHAIWKGILDHRQLHEF | -0.551 ± 0.034 |
| TDCSIVSFLARLGCSSCTDYFTTQGLTTIYQIEHYSMDDLASLKIPEQFRHAIWKGILDHRQLHEF | -0.008 ± 0.022 |
| TDCSIVSFLARLGCSSCSDYFTTQGLTTIYQIEHYSMDDLASLKIPEQFRHAIWKGILDHRQLHEF | -0.018 ± 0.022 |
| TDCSIVSFLARLGCSSCYDYFTTQGLTTIYQIEHYSMDDLASLKIPEQFRHAIWKGILDHRQLHEF | -0.047 ± 0.025 |
| TDCSIVSFLARLGCSSCWDYFTTQGLTTIYQIEHYSMDDLASLKIPEQFRHAIWKGILDHRQLHEF | -0.203 ± 0.08 |
| TDCSIVSFLARLGCSSCQDYFTTQGLTTIYQIEHYSMDDLASLKIPEQFRHAIWKGILDHRQLHEF | -0.002 ± 0.063 |
| TDCSIVSFLARLGCSSCRDYFTTQGLTTIYQIEHYSMDDLASLKIPEQFRHAIWKGILDHRQLHEF | -0.072 ± 0.027 |
| TDCSIVSFLARLGCSSCNDYFTTQGLTTIYQIEHYSMDDLASLKIPEQFRHAIWKGILDHRQLHEF | -0.047 ± 0.029 |
| TDCSIVSFLARLGCSSCVDYFTTQGLTTIYQIEHYSMDDLASLKIPEQFRHAIWKGILDHRQLHEF | -0.013 ± 0.022 |
| TDCSIVSFLARLGCSSCLDNFTTQGLTTIYQIEHYSMDDLASLKIPEQFRHAIWKGILDHRQLHEF | -0.022 ± 0.033 |
| TDCSIVSFLARLGCSSCLDDFTTQGLTTIYQIEHYSMDDLASLKIPEQFRHAIWKGILDHRQLHEF | -0.175 ± 0.038 |

| Variant | abundance fitness |
| --- | --- |
| TDCSIVSFLARLGCSSCLDLFTTQGLTTIYQIEHYSMDDLASLKIPEQFRHAIWKGILDHRQLHEF | -0.044 ± 0.028 |
| TDCSIVSFLARLGCSSCLDKFTTQGLTTIYQIEHYSMDDLASLKIPEQFRHAIWKGILDHRQLHEF | -0.02 ± 0.024 |
| TDCSIVSFLARLGCSSCLDRFTTQGLTTIYQIEHYSMDDLASLKIPEQFRHAIWKGILDHRQLHEF | -0.043 ± 0.022 |
| TDCSIVSFLARLGCSSCLDGFTTQGLTTIYQIEHYSMDDLASLKIPEQFRHAIWKGILDHRQLHEF | -0.268 ± 0.022 |
| TDCSIVSFLARLGCSSCLDMFTTQGLTTIYQIEHYSMDDLASLKIPEQFRHAIWKGILDHRQLHEF | -0.02 ± 0.027 |
| TDCSIVSFLARLGCSSCLDEFTTQGLTTIYQIEHYSMDDLASLKIPEQFRHAIWKGILDHRQLHEF | -0.139 ± 0.03 |
| TDCSIVSFLARLGCSSCLDQFTTQGLTTIYQIEHYSMDDLASLKIPEQFRHAIWKGILDHRQLHEF | -0.09 ± 0.049 |
| TDCSIVSFLARLGCSSCLDCFTTQGLTTIYQIEHYSMDDLASLKIPEQFRHAIWKGILDHRQLHEF | -0.08 ± 0.056 |
| TDCSIVSFLARLGCSSCLDVFTTQGLTTIYQIEHYSMDDLASLKIPEQFRHAIWKGILDHRQLHEF | -0.109 ± 0.024 |
| TDCSIVSFLARLGCSSCLDAFTTQGLTTIYQIEHYSMDDLASLKIPEQFRHAIWKGILDHRQLHEF | -0.028 ± 0.021 |
| TDCSIVSFLARLGCSSCLDWFTTQGLTTIYQIEHYSMDDLASLKIPEQFRHAIWKGILDHRQLHEF | -0.097 ± 0.033 |
| TDCSIVSFLARLGCSSCLDIFTTQGLTTIYQIEHYSMDDLASLKIPEQFRHAIWKGILDHRQLHEF | -0.002 ± 0.039 |
| TDCSIVSFLARLGCSSCLDPFTTQGLTTIYQIEHYSMDDLASLKIPEQFRHAIWKGILDHRQLHEF | -0.387 ± 0.037 |
| TDCSIVSFLARLGCSSCLDYFTEQGLTTIYQIEHYSMDDLASLKIPEQFRHAIWKGILDHRQLHEF | -0.02 ± 0.033 |
| TDCSIVSFLARLGCSSCLDYFTHQGLTTIYQIEHYSMDDLASLKIPEQFRHAIWKGILDHRQLHEF | 0.076 ± 0.069 |
| TDCSIVSFLARLGCSSCLDYFTDQGLTTIYQIEHYSMDDLASLKIPEQFRHAIWKGILDHRQLHEF | -0.027 ± 0.032 |
| TDCSIVSFLARLGCSSCLDYFTIQGLTTIYQIEHYSMDDLASLKIPEQFRHAIWKGILDHRQLHEF | -0.072 ± 0.034 |
| TDCSIVSFLARLGCSSCLDYFTGQGLTTIYQIEHYSMDDLASLKIPEQFRHAIWKGILDHRQLHEF | -0.004 ± 0.021 |
| TDCSIVSFLARLGCSSCLDYFTCQGLTTIYQIEHYSMDDLASLKIPEQFRHAIWKGILDHRQLHEF | -0.037 ± 0.058 |
| TDCSIVSFLARLGCSSCLDYFTAQGLTTIYQIEHYSMDDLASLKIPEQFRHAIWKGILDHRQLHEF | -0.023 ± 0.028 |
